We go through two molecules from article PMC12687421, “Characterisation of an allosteric site in PLCγ enzymes and implications for development of their specific inhibitors” (Biochemical Journal, 2025).

A short description of this data set: Specific activity of PLC variants in assay 2 (A2). Type of data set: biochemical. The following applies: aldol substrate in solution. As for the experimental part:
The effect of nucleotide inhibition on PLC activity was measured using either a membrane-based assay with the fluorescent substrate (XY-69) incorporated into liposomes or using a small soluble substrate, Aldol 518 myo-inositol-1-phosphate (Aldol). Both methods utilised the same PLC assay buffer [20 mM Hepes-KOH, 70 mM KCl, 3 mM EGTA, 2.97 mM CaCl2, 2 mM TCEP and fatty acid-free bovine serum albumin (FAF-BSA; 50 μg/ml) (pH 7.5)]. Both assays were performed in low volume black 384-well plates (Greiner Bio-One), were composed of a final assay volume of 20 μl and were monitored in a Clariostar plate reader (BMG Labtech). […] The excitation and emission wavelengths were 588–15 and 642–20, respectively.
A CLARIOstar plate reader (BMG Labtech) was used to measure the production of the fluorescent product. The excitation and emission wavelengths were 485–15 and 520–20, respectively. Each experiment was performed in at least triplicate; in many cases, nine-fold replicates were generated. The enzyme progress curves were plotted for each concentration of nucleotide using Graphpad Prism software. The initial linear rate of product generation was calculated and converted to a % inhibition when compared with the rate of PLC activity in the absence of nucleotide. […]

B1: K491D: PLCγ1 variant with K491D mutation in the nucleotide binding site (protein, UniProt P19174 2-1290, looked up, variant K491D)
1-phosphatidylinositol …: AGAASPCANGCGPGAPSDAEVLHLCRSLEVGTVMTLFYSKKSQRPERKTFQVKLETRQITWSRGADKIEGAIDIREIKEIRPGKTSRDFDRYQEDPAFRPDQSHCFVILYGMEFRLKTLSLQATSEDEVNMWIKGLTWLMEDTLQAPTPLQIERWLRKQFYSVDRNREDRISAKDLKNMLSQVNYRVPNMRFLRERLTDLEQRSGDITYGQFAQLYRSLMYSAQKTMDLPFLEASTLRAGERPELCRVSLPEFQQFLLDYQGELWAVDRLQVQEFMLSFLRDPLREIEEPYFFLDEFVTFLFSKENSVWNSQLDAVCPDTMNNPLSHYWISSSHNTYLTGDQFSSESSLEAYARCLRMGCRCIELDCWDGPDGMPVIYHGHTLTTKIKFSDVLHTIKEHAFVASEYPVILSIEDHCSIAQQRNMAQYFKKVLGDTLLTKPVEISADGLPSPNQLKRKILIKHKKLAEGSAYEEVPTSMMYSENDISNSIDNGILYLEDPVNHEWYPHYFVLTSSKIYYSEETSSDQGNEDEEEPKEVSSSTELHSNEKWFHGKLGAGRDGRHIAERLLTEYCIETGAPDGSFLVRESETFVGDYTLSFWRNGKVQHCRIHSRQDAGTPKFFLTDNLVFDSLYDLITHYQQVPLRCNEFEMRLSEPVPQTNAHESKEWYHASLTRAQAEHMLMRVPRDGAFLVRKRNEPNSYAISFRAEGKIKHCRVQQEGQTVMLGNSEFDSLVDLISYYEKHPLYRKMKLRYPINEEALEKIGTAEPDYGALYEGRNPGFYVEANPMPTFKCAVKALFDYKAQREDELTFIKSAIIQNVEKQEGGWWRGDYGGKKQLWFPSNYVEEMVNPVALEPEREHLDENSPLGDLLRGVLDVPACQIAIRPEGKNNRLFVFSISMASVAHWSLDVAADSQEELQDWVKKIREVAQTADARLTEGKIMERRKKIALELSELVVYCRPVPFDEEKIGTERACYRDMSSFPETKAEKYVNKAKGKKFLQYNRLQLSRIYPKGQRLDSSNYDPLPMWICGSQLVALNFQTPDKPMQMNQALFMTGRHCGYVLQPSTMRDEAFDPFDKSSLRGLEPCAISIEVLGARHLPKNGRGIVCPFVEIEVAGAEYDSTKQKTEFVVDNGLNPVWPAKPFHFQISNPEFAFLRFVVYEEDMFSDQNFLAQATFPVKGLKTGYRAVPLKNNYSEDLELASLLIKIDIFPAKENGDLSPFSGTSLRERGSDASGQLFHGRAREGSFESRYQQPFEDFRISQEHLADHFDSRERRAPRRTRVNGDNRL
As for B1, the “Specific Activity A2” value amounted to 18974 ± 796 RFU/min/mg.

B2: PLCγ1^wt: full-length wild-type human PLCγ1 enzyme (protein, UniProt P19174 1-1290, looked up)
chain: MAGAASPCANGCGPGAPSDAEVLHLCRSLEVGTVMTLFYSKKSQRPERKTFQVKLETRQITWSRGADKIEGAIDIREIKEIRPGKTSRDFDRYQEDPAFRPDQSHCFVILYGMEFRLKTLSLQATSEDEVNMWIKGLTWLMEDTLQAPTPLQIERWLRKQFYSVDRNREDRISAKDLKNMLSQVNYRVPNMRFLRERLTDLEQRSGDITYGQFAQLYRSLMYSAQKTMDLPFLEASTLRAGERPELCRVSLPEFQQFLLDYQGELWAVDRLQVQEFMLSFLRDPLREIEEPYFFLDEFVTFLFSKENSVWNSQLDAVCPDTMNNPLSHYWISSSHNTYLTGDQFSSESSLEAYARCLRMGCRCIELDCWDGPDGMPVIYHGHTLTTKIKFSDVLHTIKEHAFVASEYPVILSIEDHCSIAQQRNMAQYFKKVLGDTLLTKPVEISADGLPSPNQLKRKILIKHKKLAEGSAYEEVPTSMMYSENDISNSIKNGILYLEDPVNHEWYPHYFVLTSSKIYYSEETSSDQGNEDEEEPKEVSSSTELHSNEKWFHGKLGAGRDGRHIAERLLTEYCIETGAPDGSFLVRESETFVGDYTLSFWRNGKVQHCRIHSRQDAGTPKFFLTDNLVFDSLYDLITHYQQVPLRCNEFEMRLSEPVPQTNAHESKEWYHASLTRAQAEHMLMRVPRDGAFLVRKRNEPNSYAISFRAEGKIKHCRVQQEGQTVMLGNSEFDSLVDLISYYEKHPLYRKMKLRYPINEEALEKIGTAEPDYGALYEGRNPGFYVEANPMPTFKCAVKALFDYKAQREDELTFIKSAIIQNVEKQEGGWWRGDYGGKKQLWFPSNYVEEMVNPVALEPEREHLDENSPLGDLLRGVLDVPACQIAIRPEGKNNRLFVFSISMASVAHWSLDVAADSQEELQDWVKKIREVAQTADARLTEGKIMERRKKIALELSELVVYCRPVPFDEEKIGTERACYRDMSSFPETKAEKYVNKAKGKKFLQYNRLQLSRIYPKGQRLDSSNYDPLPMWICGSQLVALNFQTPDKPMQMNQALFMTGRHCGYVLQPSTMRDEAFDPFDKSSLRGLEPCAISIEVLGARHLPKNGRGIVCPFVEIEVAGAEYDSTKQKTEFVVDNGLNPVWPAKPFHFQISNPEFAFLRFVVYEEDMFSDQNFLAQATFPVKGLKTGYRAVPLKNNYSEDLELASLLIKIDIFPAKENGDLSPFSGTSLRERGSDASGQLFHGRAREGSFESRYQQPFEDFRISQEHLADHFDSRERRAPRRTRVNGDNRL
modifications: full-length
notes: full-length wild-type human PLCγ1 enzyme
In the case of B2, the “Specific Activity A2” value is reported as 18606 ± 685 RFU/min/mg.
